According to the nanobody polyreactivity screen of Harvey et al. (2022):

Assay: yeast display, Sf9 membrane polyspecificity reagent, FACS + sequencing; frameworks hold sequencing errors
How it was run: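 Synthetic nanobody libraries on Saccharomyces cerevisiae BJ5465 were galactose-induced for 36–48 hours, stained 1 hour at 4 °C with 10% biotinylated, detergent-solubilized Sf9 membrane reagent and enriched on streptavidin microbeads. FACS then separated cells into low and high (top ~1%) gates by anti-HA (expression) and streptavidin (reagent binding) fluorescence. Genes were colony-PCR amplified, MiSeq 2 × 250 sequenced and CDR-length filtered. A clone's polyreactivity label is that of its gate of origin.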

| Sequence | polyreactivity (PSR sort gate) |
| --- | --- |
| QVQLVESGGGLVQAGGSLRLSCAPSGFTFDPYAMGWYRQAPGKERELVAAIDYSGGTTYYADSVKGRFTISRDNAKNTVYLQMNSLKPEDTAVYYCAAEYTYYHWWGYDYWGQGTQVTVSS | high polyreactivity |
| QVQLVESGGGLVQAGGSLRLSCAPSGFTFLGYDMGWYRQAPGKERELVAAIDYSGGSTYYADSVKGRFTISRDNAKNTVFLQMNSLKPEDTAVYDCAAEYQSGPYTWYEYWGQGTQVTVSS | high polyreactivity |
| QVQLVESGGGLVQAGGSLRLSCAPSGFTFLYYVMGWYRQAPGKERELVAAINAGGGSTYYAESVKGRFTLSRDNAKNSVYLQMKSLKPADTAVYYCNARVRVRLGRNWSSYYDWGQGTQVTVSS | high polyreactivity |
| QVQLVESGGGLVQAGGSLRLSCAPSGFTFRIYAMGWYRQAPGKERELVAAISWAGGSTFYADSVKGRFTISRDNAKNTVYLQLNSLKPEDTAVYYCAADTAFNYDYWGQGTQVTVSS | low polyreactivity |
| QVQLVESGGGLVQAGGSLRLSCAPSGGTFPVYAMGWYRQAPGKERELVAAISYSGVTTYNADSVKGRFTISRDNAKNTVYLQMNSLKPEVTAVYYCNADWRPWYMFSYDYWGQGTQVTVSS | low polyreactivity |
| QVQLVESGGGLVQAGGSLRLSCAPSGIFYKYAMGWYRQAPGKERELVAAISISGTSTYYADSVKGRFTISRDNAKNTVYLQMNSLKPEDTAVYYCAADEFYFAPPVAGENYWGQGTQVTVSS | low polyreactivity |
| QVQLVESGGGLVQAGGSLRLSCAPSGIIFQFYAMGWYRQAPGKERELVAAISRSGGITHYADSVKGRFTISRDNAKNTVYLQMNSLKPEDTAVYYCAAVRQAYPRLDYWGQGTQVTVSS | high polyreactivity |
| QVQLVESGGGLVQAGGSLRLSCAPSGITFRPNAMGWYRQARGKERELVAAISSGDGTYADSVKGRFTISRDNAKNTVYLQMNSLKPEDSAVYYCNATGQSYVTSEYDYWGQGTQVTVSS | low polyreactivity |
| QVQLVESGGGLVQAGGSLRLSCAPSGITFRVNAMGWYRQAPGKERELVASISRSGGSTYYADSVKGRFTISRDHAKNNVYLQMKSLKPEDTAVYYCADAQKVLFYGRWFDYWGQCTQVTVSS | low polyreactivity |
| QVQLVESGGGLVQAGGSLRLSCAPSGLIFAHYDMGWYRHAPGKERELVAGITSGGSTNYADSVKGRFTISRDNAKITVYLQMNSQKPEYTAVYYCNADRAGFLGFYLYDYWGQGTQVTVSS | low polyreactivity |
| QVQLVESGGGLVQAGGSLRLSCAPSGNIFETYAMGWYRPAPGKERELVAVITRGGSTYYADSVKGRFTISRDNAKNTVYLQMNSLKPEDTAVYYCARDAYDDWYGLTDDKSDYWGQGTQVTLSS | low polyreactivity |
| QVQLVESGGGLVQAGGSLRLSCAPSGRIFNAYAMGWYRQAPGKERELVAAITVSGTRTYYADSVKGRFTISRDNAKNTVYLQMNSLKPEDSAVYYCNAGRGGVLDYGYWGQGTQVTVSS | high polyreactivity |
| QVQLVESGGGLVQAGGSLRLSCAPSGRIFSINAMGWYRQAPGKERELVAAITSGGSTKYADSVKGRFTISRDNAKNTVYLQMNSLKPEDTAVYYCAAAPGYLYWKVDYNYWGQGTQVTVSS | high polyreactivity |
| QVQLVESGGGLVQAGGSLRLSCAPSGRIFTHNVRGWYRQAPGKERELVAAISASGGSTYYADSVKGRFTISRDNAKNTVYLQMNSLKPEDTAVYYCNAEWAVRYPGYDYWGQGTQVTVSS | low polyreactivity |
| QVQLVESGGGLVQAGGSLRLSCAPSGRIFVLYTMGWYRQAPGKERELVAAIRGGGSTNYADSVKGRFTISRDNAKNTVYLQMNSLKPEDTAVSYCAARYYREYDYWGQGTQVTVSS | high polyreactivity |
| QVQLVESGGGLVQAGGSLRLSCAPSGRIFYSNDMGWYRQAPGKERELVAAIRDSAGSTRYADSVKGRFTISRVNAKNTVYLQMNSLKPEDTAVFYGHKDYVSIYFEYLDDYWGQGTQVTVSS | low polyreactivity |
| QVQLVESGGGLVQAGGSLRLSCAPSGRIVGKYVMGWDRQAPRKERELVAGICWSAGSTYYADSVKGRFTISRDNAKNTVYLQMNSLKPEDTAVYYCAAGLEGGSDYWGQGTQVTVSS | low polyreactivity |
